One molecule from PMC8944867 (Proceedings of the National Academy of Sciences of the …, 2022) can be followed below.

One experiment addresses T1, IpaH1.4 LRR domain (S. flexneri, UniProt A0A0H2USG1 38-283).
T1 sequence: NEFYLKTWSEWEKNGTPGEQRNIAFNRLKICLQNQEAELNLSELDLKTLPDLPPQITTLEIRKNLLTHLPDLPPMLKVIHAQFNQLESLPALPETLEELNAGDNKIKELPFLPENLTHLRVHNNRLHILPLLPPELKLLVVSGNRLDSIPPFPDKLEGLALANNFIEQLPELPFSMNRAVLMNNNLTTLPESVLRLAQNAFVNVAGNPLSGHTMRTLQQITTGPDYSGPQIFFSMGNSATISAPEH
The experiment is described as follows: ITC. In general terms: In ITC the heat of successive injections is recorded.

In another experiment the target is T2, HOIP UBA domain (human, UniProt Q96EP0 480-636).
T2 sequence: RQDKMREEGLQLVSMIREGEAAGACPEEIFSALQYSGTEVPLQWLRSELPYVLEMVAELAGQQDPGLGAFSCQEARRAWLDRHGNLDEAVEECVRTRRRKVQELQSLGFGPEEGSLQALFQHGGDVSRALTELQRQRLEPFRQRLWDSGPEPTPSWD
Nature of the experiment: ITC.

As a reminder, the Kd is the equilibrium constant for the complex coming apart. Read a low Kd as tighter binding.

B1: HOIL-1L UBL domain (domain or fragment)
chain: QDIRLWVSVEDAQMHTVTIWLTVRPDMTVASLKDMVFLDYGFPPVLQQWVIGQRLARDQETLHSHGVRQNGDSAYLYLLSARN
With B1, the values for the Kd with IpaH1.4 LRR domain and with HOIP UBA domain were 10.7 µM and 3.9 ± 0.4 µM, respectively.
